According to patent US20260265385A1 (ANAPTYSBIO, published 2026):

T1: recombinant human IL-2Rβ (extracellular domain, Ala1-Thr215) (human, UniProt P14784 27-240)
T1 construct: extracellular domain; Analyte in SPR; Ala1-Thr215 is counted on the mature protein; also called human LL-2Rβ; Human IL-2RB
T1 sequence (looked up): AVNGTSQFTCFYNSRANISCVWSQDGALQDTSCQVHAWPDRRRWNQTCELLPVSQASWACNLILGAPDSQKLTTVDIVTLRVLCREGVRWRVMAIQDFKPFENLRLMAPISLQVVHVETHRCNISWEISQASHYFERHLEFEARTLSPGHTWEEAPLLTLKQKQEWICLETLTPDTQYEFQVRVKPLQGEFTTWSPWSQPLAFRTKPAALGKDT

T2: recombinant cynomolgus IL-2Rβ (extracellular domain, Ala1-Thr215) (cynomolgus, UniProt Q38J85 27-240)
T2 construct: extracellular domain; Analyte in SPR; also called cynomolgus LL-2Rβ; Cyno IL-2RB
T2 sequence (looked up): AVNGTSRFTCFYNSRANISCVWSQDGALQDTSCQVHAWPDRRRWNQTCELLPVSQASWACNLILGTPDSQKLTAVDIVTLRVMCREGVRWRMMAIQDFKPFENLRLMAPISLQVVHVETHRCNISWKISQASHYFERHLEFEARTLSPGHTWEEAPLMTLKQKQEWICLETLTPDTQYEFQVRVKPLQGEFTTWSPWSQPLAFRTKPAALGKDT


Assays:
[1] = molecular target: T1, recombinant human IL-2Rβ (extracellular …); test: SPR, antibody captured on Protein A chip
Procedure: (§1) Surface plasmon resonance (SPR) was used to determine the binding affinities. The M6-1625 and M10-1275 antibodies were captured onto a Cytiva Protein A Chip for 60 seconds at 0.5 μg/mL for 60 seconds. The antibodies were exposed to recombinant human LL-2Rβ or cynomolgus LL-2Rβ (corresponding to residues Ala1-Thr215 of the extracellular domains excluding the signal peptide) at typical concentrations ranging from 0.4 nM to 11 nM with typical 300 second associations and 1200 second dissociations using a BiacoreS200 instrument. Sensorgrams were fit globally using a 1:1 binding model in the Biacore T200 Evaluation Software to calculate on- and off-rates and KD values.

[2] = molecular target: T2, recombinant cynomolgus IL-2Rβ …; test: SPR, antibody captured on Protein A chip
Procedure: as §1

| Kd [1] [nM] | Kd [2] [nM] | Binder |
| --- | --- | --- |
| 0.0567 | 0.0765 | APE15428 (antibody, M6-p1625 series) heavy: not shown light: DIQMTQSPSSLSASVGDRVTITCKASQNVGTDVAWYQQKPGKAPKSLIYSASYRYSGVPSRFSGSGSGTDFTLTISSLQPEDFATYFCHQYESYPFTFGQGTKLEIKRTVAAPSVFIFPPSDEQLKSGTASVVCLLNNFYPREAKVQWKVDNALQSGNSQESVTEQDSKDSTYSLSSTLTLSKADYEKHKVYACEVTHQGLSSPVTKSFNRGEC |
| 0.154 | 0.0223 | APE15058 (antibody, V domains shown, M10-1275 series) VH: EVQLVQSGAEVKKPGATVKISCKVSGFNFKDSLMHWVQQAPGKGLEWMGWIDSENGETEYAPGFQDRVTITADTSTDTAYMELSSLRSEDTAVYYCARGGPWFLSYWGQGTTVTVSS VL: EIVMTQSPATLSVSPGERATLSCRASQIISNNLHWYQQKPGQAPRLLIYYGLQSISGIPARFSGSRSGTEFTLTISSLQSEDFAVYFCQQSNNWPWTFGQGTKLEIKR |
| 0.116 | 0.0271 | APE15172 (antibody, V domains shown, M10-1275 series) VH: EVQLVQSGAEVKKPGATVKISCKVSGFNFKYSLIHWVQQAPGKGLEWMGWIDNEAGETEYAPGFQDRVTITADTSTDTAYMELSSLRSEDTAVYYCARGGPWFLSYWGQGTTVTVSS VL: EIVMTQSPATLSVSPGERATLSCRASQIISNNLHWYQQKPGQAPRLLIIYGLQSISGIPARFSGSRSGTEFTLTISSLQSEDFAVYFCQQSNNWPYTFGQGTKLEIKR |
| 0.0697 | 0.0159 | APE15059 (antibody, V domains shown, M10-1275 series) VH: EVQLVQSGAEVKKPGATVKISCKVSGFNFKDSLMHWVQQAPGKGLEWMGWIDSENGETEYAPGFQDRVTITADTSTDTAYMELSSLRSEDTAVYYCARGGPWFLSYWGQGTTVTVSS VL: EIVMTQSPATLSVSPGERATLSCRASQIISNNLHWYQQKPGQAPRLLIIYGLQSISGIPARFSGSRSGTEFTLTISSLQSEDFAVYYCQQSNNWPWTFGQGTKLEIKR |
| 0.0297 | 0.0116 | APE15144 (antibody, V domains shown, M10-1275 series) VH: EVQLVQSGAEVKKPGATVKISCKVSGFNFKLSLIHWVQQAPGKGLEWMGWIDNEAGETEYAPGFQDRVTITADTSTDTAYMELSSLRSEDTAVYYCARGGPWFLSYWGQGTTVTVSS VL: EIVMTQSPATLSVSPGERATLSCRASQIISNNLHWYQQKPGQAPRLLIIYGLQSISGIPARFSGSRSGTEFTLTISSLQSEDFAVYYCQQSNNWPWTFGQGTKLEIKR |
| 0.0251 | 0.00972 | APE15143 (antibody, V domains shown, M10-1275 series) VH: EVQLVQSGAEVKKPGATVKISCKVSGFNFKYSLMHWVQQAPGKGLEWMGWIDNEAGETEYAPGFQDRVTITADTSTDTAYMELSSLRSEDTAVYYCARGGPWFLSYWGQGTTVTVSS VL: EIVMTQSPATLSVSPGERATLSCRASQIISNNLHWYQQKPGQAPRLLIIYGLQSISGIPARFSGSRSGTEFTLTISSLQSEDFAVYYCQQSNNWPWTFGQGTKLEIKR |
| 0.324 | 0.0379 | APE15168 (antibody, V domains shown, M10-1275 series) VH: EVQLVQSGAEVKKPGATVKISCKVSGFNFKESLIHWVQQAPGKGLEWMGWIDNEAGETEYAPGFQDRVTITADTSTDTAYMELSSLRSEDTAVYYCARGGPWFLSYWGQGTTVTVSS VL: EIVMTQSPATLSVSPGERATLSCRASQIISNNLHWYQQKPGQAPRLLIIYGLQSISGIPARFSGSRSGTEFTLTISSLQSEDFAVYFCQQSNNFPYTFGQGTKLEIKR |
| 0.0178 | 0.00599 | APE15276 (antibody, V domains shown, M10-1275 series) VH: EVQLVQSGAEVKKPGATVKISCKVSGFNFKESLIHWVQQAPGKGLEWMGWIDNEAGETEYAPGFQDRVTITADTSTDTAYMELSSLRSEDTAVYYCARSGPWFLSYWGQGTTVTVSS VL: EIVMTQSPATLSVSPGERATLSCRASQIISNNLHWYQQKPGQAPRLLIIYGLQSISGIPARFSGSRSGTEFTLTISSLQSEDFAVYFCQQSNNFPWTFGQGTKLEIKR |
| 0.0481 | 0.0114 | APE15136 (antibody, V domains shown, M10-1275 series) VH: EVQLVQSGAEVKKPGATVKISCKVSGFNFKESLMHWVQQAPGKGLEWMGWIDSENGETEYAPGFQDRVTITADTSTDTAYMELSSLRSEDTAVYYCARGGPWFLSYWGQGTTVTVSS VL: EIVMTQSPATLSVSPGERATLSCRASQIISNNLHWYQQKPGQAPRLLIIYGLQSISGIPARFSGSRSGTEFTLTISSLQSEDFAVYYCQQSNNWPWTFGQGTKLEIKR |
| 0.0352 | 0.00923 | APE15139 (antibody, V domains shown, M10-1275 series) VH: EVQLVQSGAEVKKPGATVKISCKVSGFNFKESLIHWVQQAPGKGLEWMGWIDVEAGETEYAPGFQDRVTITADTSTDTAYMELSSLRSEDTAVYYCARGGPWFLSYWGQGTTVTVSS VL: EIVMTQSPATLSVSPGERATLSCRASQIISNNLHWYQQKPGQAPRLLIIYGLQSISGIPARFSGSRSGTEFTLTISSLQSEDFAVYYCQQSNNWPWTFGQGTKLEIKR |
| 0.022 | 0.0103 | APE15141 (antibody, V domains shown, M10-1275 series) VH: EVQLVQSGAEVKKPGATVKISCKVSGFNFKESLMHWVQQAPGKGLEWMGWIDNEAGETEYAPGFQDRVTITADTSTDTAYMELSSLRSEDTAVYYCARGGPWFLSYWGQGTTVTVSS VL: EIVMTQSPATLSVSPGERATLSCRASQIISNNLHWYQQKPGQAPRLLIIYGLQSISGIPARFSGSRSGTEFTLTISSLQSEDFAVYYCQQSNNWPWTFGQGTKLEIKR |
| 0.0282 | 0.0105 | APE15135 (antibody, V domains shown, M10-1275 series) VH: EVQLVQSGAEVKKPGATVKISCKVSGFNFKDSLMHWVQQAPGKGLEWMGWIDNENGETEYAPGFQDRVTITADTSTDTAYMELSSLRSEDTAVYYCARGGPWFLSYWGQGTTVTVSS VL: EIVMTQSPATLSVSPGERATLSCRASQIISNNLHWYQQKPGQAPRLLIIYGLQSISGIPARFSGSRSGTEFTLTISSLQSEDFAVYYCQQSNNWPWTFGQGTKLEIKR |
| 0.276 | 0.0522 | APE15171 (antibody, V domains shown, M10-1275 series) VH: EVQLVQSGAEVKKPGATVKISCKVSGFNFKYSLIHWVQQAPGKGLEWMGWIDNEAGETEYAPGFQDRVTITADTSTDTAYMELSSLRSEDTAVYYCARGGPWFLSYWGQGTTVTVSS VL: EIVMTQSPATLSVSPGERATLSCRASQIISNNLHWYQQKPGQAPRLLIIYGLQSISGIPARFSGSRSGTEFTLTISSLQSEDFAVYFCQQSNNFPYTFGQGTKLEIKR |
| 0.0296 | 0.0108 | APE15145 (antibody, V domains shown, M10-1275 series) VH: EVQLVQSGAEVKKPGATVKISCKVSGFNFKLSLMHWVQQAPGKGLEWMGWIDNEAGETEYAPGFQDRVTITADTSTDTAYMELSSLRSEDTAVYYCARGGPWFLSYWGQGTTVTVSS VL: EIVMTQSPATLSVSPGERATLSCRASQIISNNLHWYQQKPGQAPRLLIIYGLQSISGIPARFSGSRSGTEFTLTISSLQSEDFAVYYCQQSNNWPWTFGQGTKLEIKR |
| 0.0518 | 0.0174 | APE15137 (antibody, V domains shown, M10-1275 series) VH: EVQLVQSGAEVKKPGATVKISCKVSGFNFKYSLMHWVQQAPGKGLEWMGWIDSENGETEYAPGFQDRVTITADTSTDTAYMELSSLRSEDTAVYYCARGGPWFLSYWGQGTTVTVSS VL: EIVMTQSPATLSVSPGERATLSCRASQIISNNLHWYQQKPGQAPRLLIIYGLQSISGIPARFSGSRSGTEFTLTISSLQSEDFAVYYCQQSNNWPWTFGQGTKLEIKR |
| 0.0184 | 0.00509 | APE15173 (antibody, V domains shown, M10-1275 series) VH: EVQLVQSGAEVKKPGATVKISCKVSGFNFKYSLIHWVQQAPGKGLEWMGWIDNEAGETEYAPGFQDRVTITADTSTDTAYMELSSLRSEDTAVYYCARGGPWFLSYWGQGTTVTVSS VL: EIVMTQSPATLSVSPGERATLSCRASQIISNNLHWYQQKPGQAPRLLIIYGLQSISGIPARFSGSRSGTEFTLTISSLQSEDFAVYFCQQSNNFPWTFGQGTKLEIKR |
| 0.0436 | 0.0163 | APE15138 (antibody, V domains shown, M10-1275 series) VH: EVQLVQSGAEVKKPGATVKISCKVSGFNFKLSLMHWVQQAPGKGLEWMGWIDSENGETEYAPGFQDRVTITADTSTDTAYMELSSLRSEDTAVYYCARGGPWFLSYWGQGTTVTVSS VL: EIVMTQSPATLSVSPGERATLSCRASQIISNNLHWYQQKPGQAPRLLIIYGLQSISGIPARFSGSRSGTEFTLTISSLQSEDFAVYYCQQSNNWPWTFGQGTKLEIKR |
| 0.045 | 0.00655 | APE15167 (antibody, V domains shown, M10-1275 series) VH: EVQLVQSGAEVKKPGATVKISCKVSGFNFKESLMHWVQQAPGKGLEWMGWIDVEAGETEYAPGFQDRVTITADTSTDTAYMELSSLRSEDTAVYYCARGGPWFLSYWGQGTTVTVSS VL: EIVMTQSPATLSVSPGERATLSCRASQIISNNLHWYQQKPGQAPRLLIIYGLQSISGIPARFSGSRSGTEFTLTISSLQSEDFAVYYCQQSNNWPWTFGQGTKLEIKR |
